# T1: recombinant human IL-23R/Fc chimera (R&D Systems) (human, UniProt Q5VWK5 24-353)
# T1 construct: bought; also called human IL-23R/Fc fusion protein; rhIL23RFc
# T1 sequence (looked up): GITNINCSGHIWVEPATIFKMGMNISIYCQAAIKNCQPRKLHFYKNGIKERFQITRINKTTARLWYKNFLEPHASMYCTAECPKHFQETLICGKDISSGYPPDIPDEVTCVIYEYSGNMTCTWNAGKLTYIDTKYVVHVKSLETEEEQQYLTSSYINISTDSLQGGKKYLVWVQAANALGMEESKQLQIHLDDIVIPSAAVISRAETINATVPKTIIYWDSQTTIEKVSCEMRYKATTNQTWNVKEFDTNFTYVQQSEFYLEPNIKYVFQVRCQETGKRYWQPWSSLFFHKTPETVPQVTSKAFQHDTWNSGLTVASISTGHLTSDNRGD
# Target: T1, recombinant human IL-23R/Fc chimera …
# Assay: competition ELISA against IL-23
# Description: Assays were performed generally as follows. Individual wells in Immulon HB2 plates were incubated overnight at 4° C. with 100 μL PBS containing 100 ng of an anti-human IgG Fc (R&D MAB 110 clone 97924). Plates were washed five times with PBS/0.05% Tween 20, and wells were incubated for 1.5 h at RT with 100 μL each of PBS containing 50 ng of recombinant human IL-23R/Fc. […] Competitor was included at a final concentration of 1 μg/mL. After incubation, plates were washed as described and wells were incubated for 40 min at RT with 100 μL each of PBS containing a 1:5000 dilution of streptavidin-HRP conjugate (Pierce catalog no. 21130). After washing, wells were incubated with 100 μL each of TMB (BioFX Lab catalog no. TMBH-1000-0) for up to 30 min at RT. Reactions were stopped with an equal volume of 0.2 M sulfuric acid.
row,Binder,Ratio IC50 to 056-53.H4E IC50
1,"105-08-2H3 ATRIMER (designed binder, Homotrimer of the given chain (ATRIMER complex).) EPPTQKPKKIVNAKKDVVNTKMFEELKSRLDTLAQEVALLKEQQALQTVCLKGTKVHMKCFLAFTQTKTFHEASEDCISRGGTLSTPQTGSENDALYEYLRQSVGNEAEIWLGLNGSSLTNTWVDMTGARIAYKNWETEITAQPDGGWGYFGENCAVLSGAANGKWFDKRCRDQLPYICQFGIV",2.9 ratio
2,"105-20-1A6 ATRIMER (designed binder, not shown: C-terminal tag: His/Myc (pANA4) or HA-StrepII (pANA10)) EPPTQKPKKIVNAKKDVVNTKMFEELKSRLDTLAQEVALLKEQQALQTVCLKGTKVHMKCFLAFTQTKTFHEASEDCISRGGTLSTPQTGSENDALYEYLRQSVGNEAEIWLGLNGSAKTGTWVDMTGARIAYKNWETEITAQPDGGWGYFGENCAVLSGAANGKWFDKRCRDQLPYICQFGIV",6.6 ratio
3,105-20-1H1 ATRIMER (designed binder) EPPTQKPKKIVNAKKDVVNTKMFEELKSRLDTLAQEVALLKEQQALQTVCLKGTKVHMKCFLAFTQTKTFHEASEDCISRGGTLSTPQTGSENDALYEYLRQSVGNEAEIWLGLNGSPLTNTWVDMTGARIAYKNWETEITAQPDGGWGYFGENCAVLSGAANGKWFDKRCRDQLPYICQFGIV,1.8 ratio
4,105-08-2H11 ATRIMER (designed binder) EPPTQKPKKIVNAKKDVVNTKMFEELKSRLDTLAQEVALLKEQQALQTVCLKGTKVHMKCFLAFTQTKTFHEASEDCISRGGTLSTPQTGSENDALYEYLRQSVGNEAEIWLGLNGSPRTDTWVDMTGARIAYKNWETEITAQPDGGWGYFGENCAVLSGAANGKWFDKRCRDQLPYICQFGIV,4.3 ratio
5,"105-20-1B4 ATRIMER (designed binder, Homotrimer of the given chain (ATRIMER complex).) EPPTQKPKKIVNAKKDVVNTKMFEELKSRLDTLAQEVALLKEQQALQTVCLKGTKVHMKCFLAFTQTKTFHEASEDCISRGGTLSTPQTGSENDALYEYLRQSVGNEAEIWLGLNGSSRTNTWVDMTGARIAYKNWETEITAQPDGGWGYFGENCAVLSGAANGKWFDKRCRDQLPYICQFGIV",3 ratio
6,"105-08-2H10 ATRIMER (designed binder, not shown: C-terminal tag: His/Myc (pANA4) or HA-StrepII (pANA10)) EPPTQKPKKIVNAKKDVVNTKMFEELKSRLDTLAQEVALLKEQQALQTVCLKGTKVHMKCFLAFTQTKTFHEASEDCISRGGTLSTPQTGSENDALYEYLRQSVGNEAEIWLGLNGSNHTDTWVDMTGARIAYKNWETEITAQPDGGFGYFGENCAVLSGAANGKWFDKRCRDQLPYICQFGIV",6.5 ratio
7,"105-08-2H12 ATRIMER (designed binder, Homotrimer of the given chain (ATRIMER complex).) EPPTQKPKKIVNAKKDVVNTKMFEELKSRLDTLAQEVALLKEQQALQTVCLKGTKVHMKCFLAFTQTKTFHEASEDCISRGGTLSTPQTGSENDALYEYLRQSVGNEAEIWLGLNGSPRTETWVDMTGARIAYKNWETEITAQPDGGFGYFGENCAVLSGAANGKWFDKRCRDQLPYICQFGIV",3.3 ratio
8,105-08-2H4 ATRIMER (designed binder) EPPTQKPKKIVNAKKDVVNTKMFEELKSRLDTLAQEVALLKEQQALQTVCLKGTKVHMKCFLAFTQTKTFHEASEDCISRGGTLSTPQTGSENDALYEYLRQSVGNEAEIWLGLNGSVRTDTWVDMTGARIAYKNWETEITAQPDGGFGYFGENCAVLSGAANGKWFDKRCRDQLPYICQFGIV,5 ratio
9,105-08-2H6 ATRIMER (designed binder) EPPTQKPKKIVNAKKDVVNTKMFEELKSRLDTLAQEVALLKEQQALQTVCLKGTKVHMKCFLAFTQTKTFHEASEDCISRGGTLSTPQTGSENDALYEYLRQSVGNEAEIWLGLNGSPVTGTWVDMTGARIAYKNWETEITAQPDGGFGYFGENCAVLSGAANGKWFDKRCRDQLPYICQFGIV,2 ratio

# Now from value to binder:
row,Ratio IC50 to 056-53.H4E IC50,Binder
1,1 ratio,"105-20-2G12 ATRIMER (designed binder, not shown: C-terminal tag: Myc/His6 (pANA4) or HA-StrepII (pANA10); A Ser left at the ompA junction may also sit at the N-terminus) EPPTQKPKKIVNAKKDVVNTKMFEELKSRLDTLAQEVALLKEQQALQTVCLKGTKVHMKCFLAFTQTKTFHEASEDCISRGGTLSTPQTGSENDALYEYLRQSVGNEAEIWLGLNGSPRTNTWVDMTGARIAYKNWETEITAQPDGGFGYFGENCAVLSGAANGKWFDKRCRDQLPYICQFGIV"
2,2.1 ratio,105-20-1H7 ATRIMER (designed binder) EPPTQKPKKIVNAKKDVVNTKMFEELKSRLDTLAQEVALLKEQQALQTVCLKGTKVHMKCFLAFTQTKTFHEASEDCISRGGTLSTPQTGSENDALYEYLRQSVGNEAEIWLGLNGSAGTNTWVDMTGARIAYKNWETEITAQPDGGFGYFGENCAVLSGAANGKWFDKRCRDQLPYICQFGIV
3,0.8 ratio,"105-59-3B5 ATRIMER (designed binder, not shown: C-terminal purification tag: Myc/His6 (pANA4) or HA-StrepII (pANA10)) EPPTQKPKKIVNAKKDVVNTKMFEELKSRLDTLAQEVALLKEQQALQTVCLKGTKVHMKCFLAFTQTKTFHEASEDCISRGGTLSTPQTGSENDALYEYLRQSVGNEAEIWLGLNGSPITDTWVDMTGARIAYKNWETEITAQPDGGFGVFGENCAVLSGAANGKWFDKRCRDQLPYICQFGIV"
4,0.8 ratio,"105-61-4G3 ATRIMER (designed binder, not shown: C-terminal purification tag: Myc/His6 (pANA4) or HA-StrepII (pANA10)) EPPTQKPKKIVNAKKDVVNTKMFEELKSRLDTLAQEVALLKEQQALQTVCLKGTKVHMKCFLAFTQTKTFHEASEDCISRGGTLSTPQTGSENDALYEYLRQSVGNEAEIWLGLNGSLRTDTWVDMTGARIAYKNWETEITAQPDGGFGVFGENCAVLSGAANGKWFDKRCRDQLPYICQFGIV"
5,4.8 ratio,105-20-2C11 ATRIMER (designed binder) EPPTQKPKKIVNAKKDVVNTKMFEELKSRLDTLAQEVALLKEQQALQTVCLKGTKVHMKCFLAFTQTKTFHEASEDCISRGGTLSTPQTGSENDALYEYLRQSVGNEAEIWLGLNGSVRTDTWVDMTGARIAYKNWETEITAQPDGGWGYFGENCAVLSGAANGKWFDKRCRDQLPYICQFGIV
6,3.5 ratio,105-20-2C7 ATRIMER (designed binder) EPPTQKPKKIVNAKKDVVNTKMFEELKSRLDTLAQEVALLKEQQALQTVCLKGTKVHMKCFLAFTQTKTFHEASEDCISRGGTLSTPQTGSENDALYEYLRQSVGNEAEIWLGLNGSVTTDTWVDMTGARIAYKNWETEITAQPDGGFGYFGENCAVLSGAANGKWFDKRCRDQLPYICQFGIV
7,1.2 ratio,"105-59-3A5 ATRIMER (designed binder, not shown: C-terminal tag: Myc/His6 (pANA4) or HA-StrepII (pANA10); A Ser left at the ompA junction may also sit at the N-terminus) EPPTQKPKKIVNAKKDVVNTKMFEELKSRLDTLAQEVALLKEQQALQTVCLKGTKVHMKCFLAFTQTKTFHEASEDCISRGGTLSTPQTGSENDALYEYLRQSVGNEAEIWLGLNGSLLTNTWVDMTGARIAYKNWETEITAQPDGGFGVFGENCAVLSGAANGKWFDKRCRDQLPYICQFGIV"
8,1.3 ratio,"105-78-2D1 ATRIMER (designed binder, not shown: C-terminal tag: Myc/His6 (pANA4) or HA-StrepII (pANA10); A Ser left at the ompA junction may also sit at the N-terminus) EPPTQKPKKIVNAKKDVVNTKMFEELKSRLDTLAQEVALLKEQQALQTVCLKGTKVHMKCFLAFTQTKTFHEASEDCISRGGTLSTPQTGSENDALYEYLRQSVGNEAEIWLGLNGSLRTHTWVDMTGARIAYKNWETEITAQPDGGFGVFGENCAVLSGAANGKWFDKRCRDQLPYICQFGIV"
9,2.9 ratio,"105-20-2C4a ATRIMER (designed binder, not shown: C-terminal tag: His/Myc (pANA4) or HA-StrepII (pANA10)) EPPTQKPKKIVNAKKDVVNTKMFEELKSRLDTLAQEVALLKEQQALQTVCLKGTKVHMKCFLAFTQTKTFHEASEDCISRGGTLSTPQTGSENDALYEYLRQSVGNEAEIWLGLNGSAKTDTWVDMTGARIAYKNWETEITAQPDGGWGYFGENCAVLSGAANGKWFDKRCRDQLPYICQFGIV"
10,4.2 ratio,"105-20-2F10 ATRIMER (designed binder, Forms a homotrimer (ATRIMER) through the tetranectin coiled coil; one protomer is given., not shown: C-terminal tag) EPPTQKPKKIVNAKKDVVNTKMFEELKSRLDTLAQEVALLKEQQALQTVCLKGTKVHMKCFLAFTQTKTFHEASEDCISRGGTLSTPQTGSENDALYEYLRQSVGNEAEIWLGLNGSARTDTWVDMTGARIAYKNWETEITAQPDGGFGYFGENCAVLSGAANGKWFDKRCRDQLPYICQFGIV"
11,5.3 ratio,"105-20-2G5 ATRIMER (designed binder, not shown: C-terminal tag: His/Myc (pANA4) or HA-StrepII (pANA10)) EPPTQKPKKIVNAKKDVVNTKMFEELKSRLDTLAQEVALLKEQQALQTVCLKGTKVHMKCFLAFTQTKTFHEASEDCISRGGTLSTPQTGSENDALYEYLRQSVGNEAEIWLGLNGSRRTDTWVDMTGARIAYKNWETEITAQPDGGWGYFGENCAVLSGAANGKWFDKRCRDQLPYICQFGIV"
12,4.2 ratio,"105-20-2C4b ATRIMER (designed binder, Forms a homotrimer (ATRIMER) through the tetranectin coiled coil; one protomer is given., not shown: C-terminal tag) EPPTQKPKKIVNAKKDVVNTKMFEELKSRLDTLAQEVALLKEQQALQTVCLKGTKVHMKCFLAFTQTKTFHEASEDCISRGGTLSTPQTGSENDALYEYLRQSVGNEAEIWLGLNGSVKTDTWVDMTGARIAYKNWETEITAQPDGGWGYFGENCAVLSGAANGKWFDKRCRDQLPYICQFGIV"
13,1 ratio,"105-61-4G5 ATRIMER (designed binder, not shown: C-terminal tag: Myc/His6 (pANA4) or HA-StrepII (pANA10); A Ser left at the ompA junction may also sit at the N-terminus) EPPTQKPKKIVNAKKDVVNTKMFEELKSRLDTLAQEVALLKEQQALQTVCLKGTKVHMKCFLAFTQTKTFHEASEDCISRGGTLSTPQTGSENDALYEYLRQSVGNEAEIWLGLNGSPLTNTWVDMTGARIAYKNWETEITAQPDGGFGVFGENCAVLSGAANGKWFDKRCRDQLPYICQFGIV"

# Reference: patent publication US20110086770A1 (ANAPHORE, published 2011)
